Measured values: publication PMC2821902 (Biochemistry, 2009)
Positions count from the first letter of the chain named. Read-outs that look alike come from different tables or passages of the source.

Assays:
[1] = target: Dynein light chain LC8 (wild type) (UniProt Q24117); assay: NMR; settings: cited from earlier work
[2] = target: the molecule itself; assay: NMR NZ-exchange spectroscopy
[3] = target: the molecule itself
[4] = target: the molecule itself; assay: NMR HSQC peak intensities of monomer and dimer signals in slow exchange
[5] = target: the molecule itself; assay: NMR NZ-exchange spectroscopy; remark: listed apart in the source
[6] = target: the molecule itself; remark: listed apart in the source

Molecule: Dynein light chain LC8 (wild type)
- KD ([1]; pH high pH (limit (so in the source))): < 1 µM
- pKa, His55 of LC8 (dimer) ([1]; pH): < 4.5 pH units
- pKa, His55 of LC8 (monomer) ([1]; pH): 6.5 pH units

B1: LC8 Ser88Glu mutant (phosphomimetic) (natural protein)
chain: MSDRKAVIKNADMSEEMQQDAVDCATQALEKYNIEKDIAAYIKKEFDKKYNPTWHCIVGRNFGSYVTHETRHFIYFYLGQVAILLFKEG
- koff [2]: 1.9 to 5.7 s⁻¹
- kon [2]: 1200 to 3000 M⁻¹ s⁻¹
- KD of the protonation state His55+/His55+, Glu88/Glu88 (from the model) [3]: 25000 µM
- KD of the protonation state His55+/His55+, Glu88/Glu88− (from the model) [3]: 110000 µM
- KD of the protonation state His55+/His55+, Glu88−/Glu88− (from the model) [3]: 1.8e+07 mM
- KD of the protonation state His55/His55+, Glu88/Glu88 (from the model) [3]: 17 µM
- KD of the protonation state His55/His55+, Glu88/Glu88− (from the model) [3]: 6800 µM
- KD of the protonation state His55/His55+, Glu88−/Glu88− (from the model) [3]: 12000 mM
- KD of the protonation state His55/His55, Glu88/Glu88 (from the model) [3]: 0.071 µM
- KD of the protonation state His55/His55, Glu88/Glu88− (from the model) [3]: 28 µM
- Kd [4]: 930 µM

B2: wild-type dynein light chain LC8 (natural protein)
chain: B1 chain with E88S
- koff [5]: 0.05 to 0.24 s⁻¹
- kon [5]: 1000 to 3000 M⁻¹ s⁻¹
- KD at neutral pH [6]: < 0.1 µM
- KD of the protonation state His55+/His55+ (from the model) [3]: 21000 µM
- KD of the protonation state His55/His55 (from the model) [3]: 0.06 µM
- KD of the protonation state His55/His55+ (from the model) [3]: 14 µM
